Experiments:
NFIB = NFIB (Homo sapiens, UniProt O00712 1-420); test: EMSA; EMSA: 10 mM Hepes pH 7.9, 10% glycerol, 0.1 mM EDTA, 0.5 mM DTT, 0.25 mM PMSF, 50 mM KCl, 2 ug poly(dI:dC); Tris-glycine gels at 4 C; footprinting binding 5 min at room temperature with 5 ug poly(dI:dC); details: protein: recombinant; chain copies: 2; label: 5' 32P as probe; blunt
NFIA = NFIA (Homo sapiens, UniProt Q12857 1-509); test: as above; details: protein: recombinant; chain copies: 2; label: 5' 32P as probe; blunt
Sequence of NFIA (Q12857 whole entry): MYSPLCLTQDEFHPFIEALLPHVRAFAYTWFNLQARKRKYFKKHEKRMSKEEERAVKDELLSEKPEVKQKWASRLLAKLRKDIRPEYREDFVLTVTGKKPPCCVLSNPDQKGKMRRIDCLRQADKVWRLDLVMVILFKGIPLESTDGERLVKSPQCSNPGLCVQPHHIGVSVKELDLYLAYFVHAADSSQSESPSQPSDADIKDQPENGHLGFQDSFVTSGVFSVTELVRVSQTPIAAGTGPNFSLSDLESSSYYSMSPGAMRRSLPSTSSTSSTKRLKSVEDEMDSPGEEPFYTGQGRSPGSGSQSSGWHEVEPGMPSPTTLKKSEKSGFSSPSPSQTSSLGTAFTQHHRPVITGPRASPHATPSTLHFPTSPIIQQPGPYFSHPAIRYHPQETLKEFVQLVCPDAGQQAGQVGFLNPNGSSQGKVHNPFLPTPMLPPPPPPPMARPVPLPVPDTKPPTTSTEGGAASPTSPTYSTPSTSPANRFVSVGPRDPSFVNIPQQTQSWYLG

NFIC = NFIC (Homo sapiens, UniProt P08651 1-508); test: as above; details: protein: recombinant; chain copies: 2; label: 5' 32P as probe; blunt
Sequence of NFIC (P08651 whole entry): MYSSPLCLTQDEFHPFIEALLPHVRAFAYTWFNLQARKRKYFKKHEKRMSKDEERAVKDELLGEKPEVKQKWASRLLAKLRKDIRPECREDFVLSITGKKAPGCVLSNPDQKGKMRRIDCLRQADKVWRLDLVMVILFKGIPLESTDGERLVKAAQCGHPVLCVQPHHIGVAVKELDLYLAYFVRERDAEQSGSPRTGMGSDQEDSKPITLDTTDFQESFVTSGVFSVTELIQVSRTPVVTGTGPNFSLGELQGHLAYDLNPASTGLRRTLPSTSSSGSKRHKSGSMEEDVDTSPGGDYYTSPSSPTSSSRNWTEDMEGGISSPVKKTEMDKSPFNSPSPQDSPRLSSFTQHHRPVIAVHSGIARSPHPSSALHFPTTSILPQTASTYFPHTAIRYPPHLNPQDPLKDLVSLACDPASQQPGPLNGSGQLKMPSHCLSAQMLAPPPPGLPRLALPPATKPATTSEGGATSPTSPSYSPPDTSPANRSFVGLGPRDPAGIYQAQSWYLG

NFIX = NFIX (Homo sapiens, UniProt Q14938 1-502); test: EMSA; EMSA: 10 mM Hepes pH 7.9, 10% glycerol, 0.1 mM EDTA, 0.5 mM DTT, 0.25 mM PMSF, 50 mM KCl, 2 ug poly(dI:dC); Tris-glycine gels at 4 C; footprinting binding 5 min

Measured: binding result

B1: NFI high affinity probe (dsDNA)
DNA 1: TTATTTTGGATTGAAGCCAATATGAG
DNA 2: CTCATATTGGCTTCAATCCAAAATAA
binds: all assays above

Source: article PMC6214142, “Transcription of the Human 5-Hydroxytryptamine Receptor 2B (HTR2B) Gene Is under the Regulatory Influence of the Transcription Factors NFI and RUNX1 in Human Uveal Melanoma”
